We go through 3 molecules from patent publication EP4725964A1 (Jiangsu Mabwell Health Pharmaceutical R&D Co., Ltd., dated 2026).

In assay [1] the target is recombinant human Nectin-4 protein (human) (UniProt Q96NY8). The assay is described as follows: ELISA, antigen coated at 5 ug/ml, antibody 10 ng/ml.
Assay [2] has the same target. The assay is described as follows: ELISA, antigen coated at 5 ug/ml, antibody 100 ng/ml. A general note: ELISA stands for enzyme-linked immunosorbent assay.
Assay [3] deals with T1, Nectin-4 in human tissue sections (human, UniProt Q96NY8 32-510).
T1 construct: Endogenous Nectin-4 in formalin-fixed, paraffin-embedded human tissue sections (cell membrane and/or cytoplasm), as stained by immunohistochemistry; also called target protein Nectin-4; Nectin-4 in normal human tissues and tumor tissues
T1 sequence: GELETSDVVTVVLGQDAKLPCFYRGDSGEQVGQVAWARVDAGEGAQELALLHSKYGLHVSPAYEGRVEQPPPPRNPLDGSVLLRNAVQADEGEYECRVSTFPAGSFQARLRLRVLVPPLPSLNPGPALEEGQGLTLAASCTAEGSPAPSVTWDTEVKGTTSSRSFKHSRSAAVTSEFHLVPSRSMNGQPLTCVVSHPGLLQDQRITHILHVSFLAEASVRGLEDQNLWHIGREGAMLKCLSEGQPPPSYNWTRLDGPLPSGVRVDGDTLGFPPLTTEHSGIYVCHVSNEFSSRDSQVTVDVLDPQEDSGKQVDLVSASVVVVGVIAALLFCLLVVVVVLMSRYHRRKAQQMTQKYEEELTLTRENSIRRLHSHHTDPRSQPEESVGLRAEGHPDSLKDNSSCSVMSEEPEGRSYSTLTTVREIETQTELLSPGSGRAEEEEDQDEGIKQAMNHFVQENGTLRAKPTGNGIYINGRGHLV
In words: IHC, normal human pancreas, antibody 1 ug/ml.

The target of assay [4] is recombinant human Nectin-4 protein (human) (UniProt Q96NY8). The assay is described as follows: ELISA, antigen coated at 5 ug/ml, antibody 1000 ng/ml.
The target is the same in assay [5]. In words: ELISA, antigen coated at 5 ug/ml, antibody 10000 ng/ml.
Assay [6] concerns the target T2, human Nectin-4 expressed by PC-3-Nectin-4 cells (human, UniProt Q96NY8 32-510).
T2 construct: Full-length human Nectin-4 gene (NCBI Gene ID 81607, 1533 bp) knocked into PC-3 cells; On intact cells in flow cytometry; in denatured cell lysate in Western blotting; also called Nectin-4-expressing cells; Nectin-4-positive cells
T2 sequence: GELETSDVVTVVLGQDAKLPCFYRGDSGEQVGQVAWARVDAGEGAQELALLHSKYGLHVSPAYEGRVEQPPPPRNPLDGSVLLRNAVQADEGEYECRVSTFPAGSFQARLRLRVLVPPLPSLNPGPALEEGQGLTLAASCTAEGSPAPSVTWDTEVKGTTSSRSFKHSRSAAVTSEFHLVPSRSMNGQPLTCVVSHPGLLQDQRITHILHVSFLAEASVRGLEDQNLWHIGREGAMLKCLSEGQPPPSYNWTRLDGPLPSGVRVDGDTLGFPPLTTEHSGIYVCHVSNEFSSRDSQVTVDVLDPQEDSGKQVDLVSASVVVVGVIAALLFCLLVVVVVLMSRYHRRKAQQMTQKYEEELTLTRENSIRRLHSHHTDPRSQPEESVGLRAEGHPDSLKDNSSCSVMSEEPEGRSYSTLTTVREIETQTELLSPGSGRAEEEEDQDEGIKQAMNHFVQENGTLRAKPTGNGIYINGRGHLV
In words: flow cytometry on PC-3-Nectin-4 cells, antibody 5 ug/ml. (In flow cytometry, cells or beads pass a laser one at a time.)

The target of assay [7] is recombinant human Nectin-4 protein (human) (UniProt Q96NY8). The assay is described as follows: ELISA, antigen coated at 5 ug/ml, antibody 0 ng/ml (blank control).
The target in assay [8] is T1, Nectin-4 in human tissue sections. The assay is described as follows: IHC, normal human skin, antibody 1 ug/ml.
For assay [9] the target is unchanged. In words: IHC, normal human salivary gland, 3 samples, antibody 1 ug/ml.

B1: Antibody R012 (antibody, V domains shown)
VH: SKSVEESGGRLVTPGTPLTLTCTVSGFSLSTYAMSWVRQAPGKGLEYIGIISGRGTTYYASWLKGRFTISKTSTTVDLKITSPTTEDTATYFCARDAGISDVYTGYFNLWGQGTLVTVSS
VL: QPVLAQLPSASAALGASAKLTCTLSSAHRTYTIAWYQQQQGEAPRYLMMLKSDGSYTKGTGVPDRFSGSSSGADRYLIISSVQAADEADYYCGADDSGGYVFGGGTQLTVTG
notes: Rabbit monoclonal antibody from a phage library; heavy chain constant region is rabbit IgG; also called Nectin-4 rabbit monoclonal antibody R012; rabbit antibody R012
As for B1, the OD detection value (OD450 nm-650 nm) in assay [1] is 0.748; in [2] it was 1.44; in assay [4], 1.56; in assay [5] it was 1.51; in assay [7] it was 0.008. Further, the binding result in assay [3] and in assay [6] was “binds” in each case.

B2: Antibody R036 (antibody, V domains shown)
VH: SQSVEESGGRLVTPGTPLTLTCTVSGFSLSSYAMSWVRQAPGKGLEYIGIIGGRGTTYYAIWAKGRFTISKTSTTVDLKITSPTTEDTATYFCARDAGTTYVGTTYVATGYFNLWGQGTLVTVSS
VL: QPVLTQPPSASAALGASAKLTCTLSSAHKTYTIAWYQQQQGEAPRYLMILKSDGSYTRGTGVPDRFSGSSSGADRYLIISSVQADDEADYYCGADDSGGYVFGGGTQLTVTG
notes: Rabbit monoclonal antibody from a phage library; heavy chain constant region is rabbit IgG; also called Nectin-4 rabbit monoclonal antibody R036; rabbit antibody R036
With B2, the binding result in [8] and in [6] was “binds” throughout. The OD detection value (OD450 nm-650 nm) in assay [1] was 0.73; in assay [2], 1.48; in assay [4], 1.64; in assay [5], 1.63; in assay [7], 0.007.

B3: Antibody MM11 (antibody, mouse IgG1, kappa, V domains shown)
VH: DVQLQESGPGLVKPSQSLSLTCSVTGYSITSNFYWNWIRQFPGNRLEWMGYISYDGSNNYNPSLKNRISISRDTSKNQFFLKLNSVTTEDTATYYCVRADYWGQGTLVTVSA
VL: DTVMTQTPLSLPVSLGDQASISCRSSQSLESSDGHAYLNWYLQKPGQSPQLLIYRVSNRFSGVLHRFSGSGSGTDFTLKISRVEAEDLGVYFCLQFTHVPFTFGSGTKLEIKR
notes: Mouse monoclonal antibody from a hybridoma; heavy chain constant region is mouse IgG1; also called Nectin-4 mouse monoclonal antibody MM11; mouse antibody MM11
Turning to B3, the OD detection value (OD450 nm-650 nm) in assay [1] came to 0.58; in assay [2], 1.64; in assay [4], 2.05; in [5], 1.97; in [7] it was 0.008. The binding result in assay [6] and in [9] was “binds” throughout.
